According to patent US20190185532A1 (UNIVERSITY OF BIRMINGHAM, published 2019):

T1: MMRN2 (endogenous, HUVEC) (human, UniProt Q9H8L6 23-949)
T1 construct: Endogenous protein in HUVEC lysates (co-immunoprecipitation); also called multimerin-2
T1 sequence (looked up): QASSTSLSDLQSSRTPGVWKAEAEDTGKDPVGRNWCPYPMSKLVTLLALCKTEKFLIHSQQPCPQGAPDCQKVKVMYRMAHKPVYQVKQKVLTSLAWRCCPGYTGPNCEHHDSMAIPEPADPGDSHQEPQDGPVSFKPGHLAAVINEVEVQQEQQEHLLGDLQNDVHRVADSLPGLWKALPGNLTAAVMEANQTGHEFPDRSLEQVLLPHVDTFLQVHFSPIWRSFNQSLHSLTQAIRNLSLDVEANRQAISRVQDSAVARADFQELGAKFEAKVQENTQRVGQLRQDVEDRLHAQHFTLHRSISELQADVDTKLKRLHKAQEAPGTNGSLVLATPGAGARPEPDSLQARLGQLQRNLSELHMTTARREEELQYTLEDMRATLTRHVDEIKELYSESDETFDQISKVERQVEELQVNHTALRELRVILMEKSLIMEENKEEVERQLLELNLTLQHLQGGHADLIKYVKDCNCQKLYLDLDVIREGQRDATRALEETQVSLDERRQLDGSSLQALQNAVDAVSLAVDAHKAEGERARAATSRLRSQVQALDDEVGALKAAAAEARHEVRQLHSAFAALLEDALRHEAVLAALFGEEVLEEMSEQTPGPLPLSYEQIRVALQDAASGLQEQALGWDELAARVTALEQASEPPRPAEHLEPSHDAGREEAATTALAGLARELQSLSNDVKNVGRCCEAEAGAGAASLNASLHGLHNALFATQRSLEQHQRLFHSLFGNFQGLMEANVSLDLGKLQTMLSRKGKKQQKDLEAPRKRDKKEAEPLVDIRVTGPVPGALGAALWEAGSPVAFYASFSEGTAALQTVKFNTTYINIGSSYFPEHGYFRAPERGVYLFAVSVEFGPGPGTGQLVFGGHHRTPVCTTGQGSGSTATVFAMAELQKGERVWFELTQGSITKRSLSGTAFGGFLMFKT


Experiments:
[1] = biological target: T1, MMRN2 (endogenous, HUVEC); test: flow cytometry on HUVEC
Protocol: FIG. 3. A distinct region of MMRN2 binds CLEC14A in the C-type lectin domain. (A) CLEC14A-ECD-Fc was used to pull down MMRN2^FL from HEK293T transfected lysates. hCLEC14A-ECD-Fc was pre-incubated with either PBS, mouse control IgG, or C1-5. […] (B) Flow cytometry analysis of CLEC14A-ECD-Fc binding to HUVEC surface. CLEC14A-ECD-Fc was pre-incubated with same conditions as in pull downs. […] Mann-Whitney test *p<0.05 n=4 error bars represent standard error mean (SEM). (C) HEK293T transfected with CLEC14A domain deletions were lysed and far western blotted with MMRN2^FL under non-reduced conditions. Upon detection of the MMRN2^FL His tag, MMRN2 binding is observed in all mutants except those lacking the CTLD or sushi domains. CLEC14A blot was included to show expression of each mutant protein. (D) Flow cytometry analysis of HEK293T transfected with chimera 1 CLEC14A^{THBD(CTLD)} or chimera 2 CLEC14A^{THBD(sushi)}. […]
HUVEC or transfected HEK293T cells were detached from tissue culture plates using cell dissociation buffer or scraped and 5×10⁵ cells were stained with 20 ug/mL of antibody of interest or 20 μg/mL of recombinant protein. […] Samples were analysed on a FACSCalibur machine (BD Biosciences). […] Isotype control staining or human Fc alone was used as background fluorescence and this was subtracted from the geometric mean fluorescence intensity of each sample. […]

[2] = biological target: T2, thrombomodulin (human, C-terminal GFP tag, expressed in HEK293T) (human, UniProt P07204 19-575); test: flow cytometry on transfected HEK293T cells, streptavidin-PE
T2 construct: whole, on cells; On cells in flow cytometry; as non-reduced HEK293T lysate in far western blots; also called THBD; THBD wt; not shown: C-terminal green fluorescent protein (GFP) tag from vector pEGFP-N1
Source text: The minimal CLEC14A binding fragment is highlighted in black. (B,C) HEK293T were transfected with truncation mutants. Lysates were far western blotted under reduced conditions with CLEC14A extracellular domain fused to an Fc tag (CLEC14A-ECD-Fc) and western blotted by use of His tag antibodies. (B) The smallest binding fragment was identified as MMRN2⁴⁸⁷⁻⁸²⁰, MMRN2^FL fails to bind CLEC14A-ECD-Fc. (C) The smallest MMRN2 fragment binding CLEC14A is MMRN2⁵³⁰⁻⁶²⁴. (D) MMRN2⁴⁹⁵⁻⁶⁷⁴ and MMRN2⁴⁹⁵⁻⁶⁰³ bind to streptavidin under reducing conditions after biotinylation. (E) Flow cytometry histograms of HEK293T transfected with GFP tagged CTLD group 14 family members and stained with biotinylated MMRN2⁴⁹⁵⁻⁶⁷⁴ (grey line), confirming binding to CLEC14A and CD93 but not thrombomodulin. Streptavidin-PE was used as a control for background binding (grey shaded).
The human MMRN2⁴⁹⁵⁻⁶⁷⁴ fragment along with the non-CLEC14A binding fragment MMRN2⁴⁹⁵⁻⁶⁰³ was expressed in E. coil with a His tag for purification and a BirA tag for specific biotinylation (17). Biotinylated proteins could bind to streptavidin in western blots (FIG. 2D) and MMRN2⁴⁹⁵⁻⁶⁷⁴ could bind to cell surface expressed CLEC14A and CD93 but not thrombomodulin detected by flow cytometry. This confirmed the CLEC14A and CD93 interactions likely occur in the same region of MMRN2 (FIG. 2E).
HUVEC or transfected HEK293T cells were detached from tissue culture plates using cell dissociation buffer or scraped and 5×10⁵ cells were stained with 20 ug/mL of antibody of interest or 20 μg/mL of recombinant protein. In blocking experiments, hCLEC14A-ECD-Fc was incubated with 2× molar excess of antibody or recombinant protein on ice for 1 hour. Flow cytometry buffer (PBS with 0.2% (w/v) BSA and 0.02% (w/v) sodium azide) was used for all wash and incubation steps. Samples were analysed on a FACSCalibur machine (BD Biosciences). […] Isotype control staining or human Fc alone was used as background fluorescence and this was subtracted from the geometric mean fluorescence intensity of each sample.

T2 sequence (P07204 19-575): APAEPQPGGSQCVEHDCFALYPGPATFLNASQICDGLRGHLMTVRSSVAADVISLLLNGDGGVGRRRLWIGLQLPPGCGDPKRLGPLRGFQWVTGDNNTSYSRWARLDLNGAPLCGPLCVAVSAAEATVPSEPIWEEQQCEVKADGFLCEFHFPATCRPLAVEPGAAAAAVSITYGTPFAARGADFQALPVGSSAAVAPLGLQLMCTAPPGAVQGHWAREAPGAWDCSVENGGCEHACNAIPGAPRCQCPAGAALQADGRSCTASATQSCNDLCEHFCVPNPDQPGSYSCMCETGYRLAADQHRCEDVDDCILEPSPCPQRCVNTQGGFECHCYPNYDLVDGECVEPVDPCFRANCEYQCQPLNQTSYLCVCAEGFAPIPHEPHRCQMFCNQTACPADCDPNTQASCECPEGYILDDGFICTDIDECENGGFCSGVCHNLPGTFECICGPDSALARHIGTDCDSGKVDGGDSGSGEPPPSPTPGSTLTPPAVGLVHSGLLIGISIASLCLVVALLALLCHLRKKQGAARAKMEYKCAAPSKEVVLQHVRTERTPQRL

Row | Binder | binding result [1] | binding result [2]
1 | CLEC14A-ECD-Fc (human CLEC14A extracellular domain fused to an Fc tag) (Fc fusion, Expressed in HEK293T cells; also called hCLEC14A-ECD-Fc; C14A-Fc; not shown: human IgG Fc tag) EHPTADRAGCSASGACYSLHHATMKRQAAEEACILRGGALSTVRAGAELRAVLALLRAGPGPGGGSKDLLFWVALERRRSHCTLENEPLRGFSWLSSDPGGLESDTLQWVEEPQRSCTARRCAVLQATGGVEPAGWKEMRCHLRANGYLCKYQFEVLCPAPRPGAASNLSYRAPFQLHSAALDFSPPGTEVSALCRGQLPISVTCIADEIGARWDKLSGDVLCPCPGRYLRAGKCAELPNCLDDLGGFACECATGFELGKDGRSCVTSGEGQPTLGGTGVPTRRPPATATSPVPQRTWPIRVDEKLGETPLVPEQDNSVTSIPEIPRWGSQSTMSTLQMSLQAESKATITPSGSVISKFNSTTSSATPQAFDSSS | binds | –
2 | biotinylated MMRN2^495-674 (human, expressed in E. coli with a His tag and a BirA tag) (ligand, biotin on the BirA tag, Used for staining of transfected HEK293T cells in flow cytometry, detected with streptavidin-PE; not shown: BirA tag and His tag (vector pET23a)) QKLYLDLDVIREGQRDATRALEETQVSLDERRQLDGSSLQALQNAVDAVSLAVDAHKAEGERARAATSRLRSQVQALDDEVGALKAAAAEARHEVRQLHSAFAALLEDALRHEAVLAALFGEEVLEEMSEQTPGPLPLSYEQIRVALQDAASGLQEQALGWDELAARVTALEQASEPPRP | – | no binding (tested: 20 µg/mL)
